B1: D domain of SEQ ID NO: 655 (designed binder)
chain: MGSWLEFETRLHAIDERLWALGGSEAELAEFEEHIAWFEEDLQFYKGKGNPEVEALDFEADAIGWELWAYRHN
B2: D domain of SEQ ID NO: 656 (designed binder)
chain: MGSWFEFETRLEAIDLRLWALGGSEAELATFEDVIAFFEDWLQFYKGKGNPEVEALKMEAWAIGEELHAYRHN
B3: D domain of SEQ ID NO: 645 (designed binder)
chain: MGSWYEFFDRLDAIDERLWALGGSEAELAWFEAEIAEFEMELQGYKGKGNPEVEALDVEAHAIEMELFAYRHN
B4: D domain of SEQ ID NO: 646 (designed binder)
chain: MGSWYEFMGRLEAIDERLQALGGSEAELAWFEHEIAEFEWSLQWYKGKGNPEVEALRFEAGAIPWELWAYRHN
B5: D domain of SEQ ID NO: 654 (designed binder)
chain: MGSWYEFLARLYAIDERLWALGGSEAELATFEHWIADFEEQLQSYKGKGNPEVEALTDEAVAIGEELSAYRHN
B6: D domain of SEQ ID NO: 652 (designed binder)
chain: MGSWIEFWNRLEAIEERLYALGGSEAELAYFEDEIAEFEIYLQQYKGKGNPEVEALKHEAEAINKELMAYRHN
B7: D domain of SEQ ID NO: 647 (designed binder)
chain: MGSWVEFSNRLDAIWERLQALGGSEAELAYFEWEIAEFEWELQSYKGKGNPEVEALNAEADAIEWELEAYRHN
B8: D domain of SEQ ID NO: 642 (designed binder)
chain: MGSWWEFEDRLYAIDDRLWALGGSEAELAQFEREIAQFEIWLQEYKGKGNPEVEALDDEATAINSELFAYRHN
B9: D domain of SEQ ID NO: 658 (designed binder)
chain: MGSWYEFEQRLEAIEWRLGALGGSEAELATFEEDIADFEEWLQEYKGKGNPEVEALQYEAYAIAEELHAYRHN
B10: D domain of SEQ ID NO: 648 (designed binder)
chain: MGSWEEFHMRLIAIDERLWALGGSEAELAGFEESIAYFESQLQDYKGKGNPEVEALDYEAHAIWRELYAYRHN
B11: D domain of SEQ ID NO: 644 (designed binder)
chain: MGSWEEFEWRLDAIDERLWALGGSEAELATFEYEIAIFENELQQYKGKGNPEVEALDSEAYAIERELGAYRHN
B12: D domain of SEQ ID NO: 643 (designed binder)
chain: MGSWDEFEFRLEAIDSRLWALGGSEAELAVFEYEIAQFEFMLQEYKGKGNPEVEALGMEAWAIENELFAYRHN
B13: D domain of SEQ ID NO: 657 (designed binder)
chain: MGSWHEFWQRLEAIEGRLWALGGSEAELADFESLIADFEEQLQEYKGKGNPEVEALMAEAEAIDNELRAYRHN
B14: D domain of SEQ ID NO: 651 (designed binder)
chain: MGSWWEFNARLDAIEDRLMALGGSEAELAYFEDIIASFENILQQYKGKGNPEVEALWYEAYAIEKELNAYRHN
B15: D domain of SEQ ID NO: 659 (designed binder)
chain: MGSWYEFENRLFAIEERLWALGGSEAELAWFEYEIANFEWGLQSYKGKGNPEVEALDNEAEAIDIELAAYRHN
B16: D domain of SEQ ID NO: 653 (designed binder)
chain: MGSWNEFVIRLFAIDDRLYALGGSEAELAWFEDEIATFEYELQRYKGKGNPEVEALEYEAEAIVSELFAYRHN
B17: D domain of SEQ ID NO: 649 (designed binder)
chain: MGSWWEFKYRLDAICFRLAALGGSEAELASFEDEIAYFEEDLQGYKGKGNPEVEALDYEALAIWDELAAYRHN
B18: D domain of SEQ ID NO: 650 (designed binder)
chain: MGSWDEFAMRLEAIQARLFALGGSEAELAIFEDEIAFFETMLQDYKGKGNPEVEALEYEAAAIEAELGAYRHN
B19: D domain of SEQ ID NO: 641 (designed binder)
chain: MGSWYEFVYRLRAIDERLDALGGSEAELAMFEFEIAFFEDQLQRYKGKGNPEVEALVDEAQAIDFELFAYRHN
B20: D-domain SEQ ID NO: 79 (designed binder)
chain: MGSWVEFKARLEAISSRLTALGGSEAELAAFEKEIAAFESELQAYKGKGNPEVEELRYSAALIRVYLQAYRHN
B21: D-domain SEQ ID NO: 91 (designed binder)
chain: MGSWTEFEHRLEAIAGRLNALGGSEAELAAFEKEIAAFESELQAYKGKGNPEVEELRYSAALIRFWLQAYRHN
B22: D-domain SEQ ID NO: 85 (designed binder)
chain: MGSWNEFEDRLSAISARLSALGGSEAELAAFEKEIAAFESELQAYKGKGNPEVEELRYSAALIRVMLQAYRHN
B23: D-domain SEQ ID NO: 86 (designed binder)
chain: MGSWVEFEYRLVAIFDRLQALGGSEAELAAFEKEIAAFESELQAYKGKGNPEVEELRYQAALIRVMLQAYRHN
B24: D-domain SEQ ID NO: 88 (designed binder)
chain: MGSWYEFSMRLSAIWERLHALGGSEAELAAFEKEIAAFESELQAYKGKGNPEVEELRYQAALIRFYLQAYRHN
B25: D-domain SEQ ID NO: 89 (designed binder)
chain: MGSWTEFSQRLGAISERLYALGGSEAELAAFEKEIAAFESELQAYKGKGNPEVEELRYSAALIRFMLQAYRHN
B26: D-domain SEQ ID NO: 94 (designed binder)
chain: MGSWIEFHQRLEAIVTRLEALGGSEAELAAFEKEIAAFESELQAYKGKGNPEVEELRYQAALIRVFLQAYRHN
B27: D-domain SEQ ID NO: 87 (designed binder)
chain: MGSWVEFQGRLGAIHERLQALGGSEAELAAFEKEIAAFESELQAYKGKGNPEVEELRYSAALIRVFLQAYRHN
B28: D-domain SEQ ID NO: 96 (designed binder)
chain: MGSWWEFEDRLSAIMERLHALGGSEAELAAFEKEIAAFESELQAYKGKGNPEVEELRYRAAIIRVYLQAYRHN
B29: D-domain SEQ ID NO: 82 (designed binder)
chain: MGSWTEFASRLVAIRQRLQALGGSEAELAAFEKEIAAFESELQAYKGKGNPEVEELRYSAAIIRVMLQAYRHN
B30: D-domain SEQ ID NO: 92 (designed binder)
chain: MGSWTEFANRLEAINARLHALGGSEAELAAFEKEIAAFESELQAYKGKGNPEVEELRFSAALIRVYLQAYRHN
B31: D-domain SEQ ID NO: 81 (designed binder)
chain: MGSWAEFYHRLDAISSRLRALGGSEAELAAFEKEIAAFESELQAYKGKGNPEVEELRYTAALIRIYLQAYRHN
B32: D-domain SEQ ID NO: 84 (designed binder)
chain: MGSWVEFHNRLSAISDRLGALGGSEAELAAFEKEIAAFESELQAYKGKGNPEVEELRYSAALIRVMLQAYRHN
B33: D-domain SEQ ID NO: 78 (designed binder)
chain: MGSWVEFRSRLEAISNRLRALGGSEAELAAFEKEIAAFESELQAYKGKGNPEVEELRTTAALIRVYLQAYRHN
B34: D-domain SEQ ID NO: 93 (designed binder)
chain: MGSWEEFDRRLYAIARRLEALGGSEAELAAFEKEIAAFESELQAYKGKGNPEVEELRYQAALIRVWLQAYRHN
B35: D-domain SEQ ID NO: 72 (designed binder)
chain: MGSWVEFQDRLEAITDRLYALGGSEAELAAFEKEIAAFESELQAYKGKGNPEVEELRYSAAMIRVILQAYRHN
B36: D-domain SEQ ID NO: 83 (designed binder)
chain: MGSWSEFDQRLAAIYQRLNALGGSEAELAAFEKEIAAFESELQAYKGKGNPEVEELRYSAALIRVMLQAYRHN
B37: D-domain SEQ ID NO: 73 (designed binder)
chain: MGSWVEFQERLMAISDRLYALGGSEAELAAFEKEIAAFESELQAYKGKGNPEVEELRWQAAMIRYTLQAYRHN
B38: D-domain SEQ ID NO: 80 (designed binder)
chain: MGSWSEFYTRLEAINNRLHALGGSEAELAAFEKEIAAFESELQAYKGKGNPEVEELRYTAALIRIYLQAYRHN
B39: D-domain SEQ ID NO: 95 (designed binder)
chain: MGSWSEFYDRLKAIADRLHALGGSEAELAAFEKEIAAFESELQAYKGKGNPEVEELRTEAAIIRVYLQAYRHN
B40: D-domain SEQ ID NO: 90 (designed binder)
chain: MGSWTEFHDRLEAITHRLNALGGSEAELAAFEKEIAAFESELQAYKGKGNPEVEELRYSAALLRVFLQAYRHN

The target in one experiment is T1, CD123 (Homo sapiens (Human), UniProt P26951 19-305, limits assumed).
T1 construct: The CD123 construct used in the ELISA is not described; also called CD123-Signal
T1 sequence: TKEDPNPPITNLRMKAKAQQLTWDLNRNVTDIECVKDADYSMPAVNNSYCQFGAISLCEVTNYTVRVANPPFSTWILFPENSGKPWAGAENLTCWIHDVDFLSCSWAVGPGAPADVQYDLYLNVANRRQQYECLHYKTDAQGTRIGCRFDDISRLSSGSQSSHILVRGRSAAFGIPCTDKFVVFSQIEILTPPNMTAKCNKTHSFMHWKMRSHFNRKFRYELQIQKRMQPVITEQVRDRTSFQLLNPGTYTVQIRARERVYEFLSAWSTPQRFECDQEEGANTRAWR
Briefly: ELISA. Also noted: unit not given here. A general note: ELISA stands for enzyme-linked immunosorbent assay.
B1 displayed an ELISA_avg of 4.6.

Molecule B2 returned an ELISA_avg of 6.6.

In the case of B3, the ELISA_avg worked out at 3.7.

In turn, B4 had an ELISA_avg of 3.5.

Regarding B5, the ELISA_avg turned out to be 4.5.

B6 gave an ELISA_avg of 5.2.

B7 yielded an ELISA_avg of 5.1.

As to B8, the ELISA_avg was found to be 5.5.

As for B9, the ELISA_avg was 4.4.

Regarding B10, the ELISA_avg came out at 3.9.

For the molecule B11, the ELISA_avg is 4.3.

In turn, B12 yielded an ELISA_avg of 3.6.

As for B13, the ELISA_avg amounted to 7.

In turn, B14 yielded an ELISA_avg of 3.4.

For B15, the ELISA_avg was found to be 3.3.

B16 yielded an ELISA_avg of 3.5.

For B17, the ELISA_avg came out at 3.1.

B18 had an ELISA_avg of 3.7.

B19 returned an ELISA_avg of 4.5.

Another experiment addresses T2, BCMA (Homo sapiens (Human), UniProt Q02223 1-54, limits assumed).
T2 sequence: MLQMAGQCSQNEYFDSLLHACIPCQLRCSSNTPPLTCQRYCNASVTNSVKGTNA
Description: ELISA, format not described. Also noted: unit not given here.
As for B20, the ELISA_avg came to 8.71.

B21 registered an ELISA_avg of 6.34.

B22: the ELISA_avg came out at 4.09.

For B23, the ELISA_avg is 7.63.

For B24, the ELISA_avg is 7.12.

In the case of B25, the ELISA_avg was 4.15.

Molecule B26 gave an ELISA_avg of 8.

B27 registered an ELISA_avg of 3.83.

For the molecule B28, the ELISA_avg came to 10.4.

Consider B29, for which the ELISA_avg is 7.99.

In turn, B30 showed an ELISA_avg of 6.42.

The molecule B31 showed an ELISA_avg of 4.31.

With B32, the ELISA_avg was found to be 7.36.

Take B33: the ELISA_avg turned out to be 3.04.

In the case of B34, the ELISA_avg came to 8.85.

Take B35: the ELISA_avg worked out at 8.88.

B36: the ELISA_avg is 7.72.

Take B37: the ELISA_avg stood at 6.7.

On to B38, for which the ELISA_avg stood at 3.66.

As for B39, the ELISA_avg was 8.21.

The molecule B40 returned an ELISA_avg of 5.79.
